Source: PMC8197028

How the values were obtained:
Assay in all cases: NMR
Asp44 [1] = conditions: isolated peptide fragments, largely unstructured; cited from earlier work
Asp46 = Asp46 (UniProt position 796, -LSDEDFKAVF); conditions: native (folded) state
Glu45 = Glu45 (UniProt position 795, --LSDEDFKAV); conditions: native (folded) state
Glu72 = Glu72 (UniProt position 822, QHLKKEKGLF-); conditions: native (folded) state
Asp44 [2] = target: Asp44 (UniProt position 794, ---LSDEDFKA); conditions: native (folded) state; cited from earlier work
[3] = fully folded over the whole pH range

Substance | pKa (Asp44 [1]) | pKa (Asp46; [3]) | pKa (Glu45; [3]) | pKa (Glu72; [3]) | pKa (Asp44 [2]) | pKa (Asp46; cited from earlier work) | pKa (Glu45; cited from earlier work) | pKa (Glu72; cited from earlier work)
HP36 peptide fragment, residues 41-53 (not stated in the article (Gallus gallus inferred)) | 4.00 |  |  |  |  |  |  | 
Villin headpiece helical subdomain HP36 D44N (not stated in the article (Gallus gallus inferred); D44N) |  | 3.43±0.05 | 3.86±0.02 | 4.32±0.02 |  |  |  | 
Villin headpiece helical subdomain HP36 D44N/K48M (not stated in the article (Gallus gallus inferred); D44N;K48M) |  | 3.49±0.08 | 4.39±0.05 | 4.37±0.03 |  |  |  | 
Villin headpiece helical subdomain HP36 K48M (not stated in the article (Gallus gallus inferred); K48M) |  |  |  |  | 3.23±0.07 | 3.38±0.05 | 4.68±0.09 | 4.41±0.03
Villin headpiece helical subdomain HP36, wild type (not stated in the article (Gallus gallus inferred)) |  |  |  |  | 3.04±0.12 | 3.44±0.11 | 3.95±0.02 | 4.37±0.03
